According to patent US8729232:

Columns and labels:
[1] = biological target: S. coelicolor sulfatase motif peptide … with Arg6 substituted by alanine
[2] = biological target: S. coelicolor sulfatase motif peptide … with Pro4 substituted by alanine
[3] = biological target: S. coelicolor sulfatase motif peptide … with Leu9 substituted by alanine
[4] = biological target: S. coelicolor sulfatase motif peptide … with Thr3 substituted by alanine

B1: Streptomyces coelicolor formylglycine generating enzyme (Strep FGE, SCO7548), recombinant (protein)
chain: AVAAPSPAAAAEPGPAARPRSTRGQVRLPGGEFAMGDAFGEGYPADGETPVHTVRLRPFHIDETAVTNARFAAFVKATGHVTDAERFGSSAVFHLVVAAPDADVLGSAAGAPWWINVRGAHWRRPEGARSDITGRPNHPVVHVSWNDATAYARWAGKRLPTEAEWEYAARGGLAGRRYAWGDELTPGGRWRCNIWQGRFPHVNTAEDGHLSTAPVKSYRPNGHGLWNTAGNVWEWCSDWFSPTYYAESPTVDPHGPGTGAARVLRGGSYLCHDSYCNRYRVAARSSNTPDSSSGNLGFRCANDADLTSGSAAE
[1]
  conversion of cysteine to FGly relative to the wild-type sequence: substitution of Thr3, Pro4, Arg6, or Leu9 with alanine completely abrogated activity
[2]
  conversion of cysteine to FGly relative to the wild-type sequence: substitution of Thr3, Pro4, Arg6, or Leu9 with alanine completely abrogated activity
[3]
  conversion of cysteine to FGly relative to the wild-type sequence: substitution of Thr3, Pro4, Arg6, or Leu9 with alanine completely abrogated activity
[4]
  conversion of cysteine to FGly relative to the wild-type sequence: substitution of Thr3, Pro4, Arg6, or Leu9 with alanine completely abrogated activity
